Results taken from the nanobody polyreactivity screen of Harvey et al. (2022).

Assay: yeast display, Sf9 membrane polyspecificity reagent, FACS + sequencing; frameworks hold sequencing errors
Outline: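 A nanobody's polyreactivity label depends on the gate it was sorted from. Yeast display cells were stained with 10% biotinylated, detergent-solubilized Sf9 membrane reagent for 1 hour at 4 °C, enriched on streptavidin microbeads and sorted by FACS. The low and high (top ~1%) gates were set on anti-HA fluorescence for expression and streptavidin fluorescence for reagent binding.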

QVQLVESGGGLVHAGGPLRLSCAASGGIFFSYAMGWYRQAPGKERELVAAIRTNGGTTYYADSVKGRFTISRDNAKNTVYLHMNSLKPEETAVYDCAALPGGYYDRGEYDYWGQGTQVTVSS
polyreactivity (PSR sort gate): low polyreactivity

QVQLVESGGGLVQAGGSLPLSCAASGSIFSKYTMGWYRQAPGKERELDAAISRAGSTYYADSVKGRFTISRDNAKNSVYLQMNSLKPEDTAVYYCNARYRGVYPLIGIRRDYYYWGQGTQVTVSS
polyreactivity (PSR sort gate): high polyreactivity

QVQLVESGGGLVQAGGSLRLSCAASGRIFTYYAMGWYRQAPGKERELVAGISGSGTSTYYADSVKGRFTISRDNAKNTVYLQMNSLKPEDTAVYYCAAIRRQNGLWDYYYWGQGTQVTVSS
polyreactivity (PSR sort gate): low polyreactivity

QVQLVESGGGLVQAGGSLRLSCAASGSIFYSYAMGWYRQAPGKERELVAAISRSGVSTYYADSVKGRFTISRDNAKNTVYLQMNSLKPEDTAVYYCASPYFVSYQGYDYWGQGTQVTVSS
polyreactivity (PSR sort gate): high polyreactivity

QVQLVESGGGLVQAGGSLRLSCAASGIISGDYAMGWYRQAPGKERELVARITSGDSTNYADSVKGRFTISRDNAKNTVYLQMNSLKPEDTAVYYCAADRVWAYWTYGYWGQGTQVTVSS
polyreactivity (PSR sort gate): low polyreactivity

QVQLVESGGGLVQAGGSLRLSCSASGFIFDVYAMGWYRPAPGKERELVAAISRSGGSTYYADSVKGRFTISRDNAKNTVYLQMNSLKPEDTAVYYCATVLLNNVDYDYWGQGTQVTVSS
polyreactivity (PSR sort gate): low polyreactivity

QEQLVESGGGLVQAGGSLRLSCAASGSIRYYAMGWDRQAPGKESELVATITRGGSTYYADSVKGRFTISRDNAKNTVYLQMNSLKPEDTAVYYCAARRAVRVGYYWHDISSYDYWGQGTQVTVSS
polyreactivity (PSR sort gate): low polyreactivity

QVQLVESGGGLVQAGGSLRLSCAASGSTFGDYAMGGYRQAPGKERELVAANDQNGGSTYYADSVKGRITISRDNAKNTVYLQMNSLIPEDTAVYYCAAESIYDWYDYGGQGTQVTVSS
polyreactivity (PSR sort gate): low polyreactivity

QVQLVESGGGLVQAGGSLRLSCPASGRTFPGYSKGWYRQAPGKERELVATITGNGGSTYYADSVKGRFTISRENAKNTVYLQMNSLKPEDTAVYYCAGGRRRPYVRAYRGTDYWVQGTQVTVSS
polyreactivity (PSR sort gate): low polyreactivity

QVQLVESGGGLVQAGGSLRLSCAASGRIFGIYAMGWYRQAPGKERELVASITGSSGSTNYADSVKGRFTISRDNAKNTVYLQMNSLKPDDTAVYYCAADIPSYYWWRAYDYWGQGTQVTVSS
polyreactivity (PSR sort gate): low polyreactivity

QVQILESGGGLVQAGGSLRVSCAASGSTFSYYAMGWYRQAPGKERELVAAIRSSGGSTYYADSVKGRFTISRDNAKNTVYLQMNSLKPEDTAVYYCAARRSVGYRRYDYWGQGTQVTVSS
polyreactivity (PSR sort gate): high polyreactivity

QVQLVESGGGLVQAGGSLRLSCDASGNILPSNAMGWYRQAPGKERELVAAITWSVGRTYYADSVKGRFTISRDNAKNTVYLQMNSLKPEDTAVYYCNAQDTPYEGRYDESEYDYWGQGTQVTVSS
polyreactivity (PSR sort gate): low polyreactivity

QVQLVESGGGLVQAGGSLRLSCAASGFIFTRYAMGWYRQAPGKERELVAAISWIGTSTYYADSVKGRFTISRDNAKNTVYLQMNSLKPEDTAVYYCNALRYSTGRPGFYLGYDYWGQGTQVTVSS
polyreactivity (PSR sort gate): high polyreactivity

QVQLVESGGSLVQAGGSLRLSCAASGFIFQDNAMGWYRQAPGKERELVAAIRSTGSTNYADSVKGRFTISRDNAKNTVYLQMNSLKPEDTAVYYCNAGKYQSDTPSLVPTEYPAFYYWGQGTQVTVSS
polyreactivity (PSR sort gate): low polyreactivity

QVQLVESGGGLVQAGGSLRLSCAASGRTFYWNAMGWYRQAPGKERELVAAISDGGGSTYYADSVKGRFTISRDNAKNTVYLHMNSLKPEDTAVYYCNTPDNQDKPYPGYDYWGQGTQVTVSS
polyreactivity (PSR sort gate): low polyreactivity

QVQLVESGGGLVQAGGSLRLSCAASGFIFWAYAMGWYRLAPGKERELVAAITWNGGSTNYADSVKGRFTISRDNAKNTVYLQMNSLKPEDTAVYYCAVSRSLSFRYPGYYWGQGTQVTVSS
polyreactivity (PSR sort gate): low polyreactivity

QVHLVESGGGLVQAGGSLRLSCAASGGTFLVNAMGWYRQAPGKERELVAAINWSGGGTTYADSVKGRFTISRDNAKNTVYLQMNSLKPEDTAVYYCATGSYTTYGYGYWGQGTQVTVSS
polyreactivity (PSR sort gate): high polyreactivity

QVQLVESGGGLVQAGGSLRLSCAASGSTFRYNAMGWYRQAPGKERELVAAITGSGDRTFYADSVKGRFTISRDNAKNTVYLQMNSLKPEDTAVYYCAARSRYPFSYGYYYWGQGTQVTVSS
polyreactivity (PSR sort gate): high polyreactivity

QVQLVESGGGLVQAGGSLRLSCAASGRIFLWYTMGWYRQAPGKERELVASITRGGTTNYADSVKGRFTISRDNAKNTVYLQMNSLKPEDTAVYYFNVAYTWCQSTTSWYDIHYYWGQGSQVTVSS
polyreactivity (PSR sort gate): high polyreactivity

QVHLVESGGVLVQAGGSLRLSCAASAGNFDTYAMGRYRQAPGKEREMVADITWSGGSTYYADSVKGRFTISRDNAKNTVYLQMNSLKPEDTAVYYCNADDPSKLGYEPDYWGQGTQVTVSS
polyreactivity (PSR sort gate): low polyreactivity

QVQRVESGGGLVQAGGSLRLSCAASGIIFDSYAMGWYRQAPGKERELVAAITSDSGRTYYADSVKGRFTISRDNAKNTVYLQMNSLKPEDTAVYYCAKGWDGTYDYWGQGTQVTVSS
polyreactivity (PSR sort gate): low polyreactivity

QVQLVESGGGLVQAGGSLRLSCAASGSNFKNNAMGWYRQAPGKEREFVASISKRGGSTYYADSVKGRFTISRDNAKNTVYLQMNSLKPEDTEVYYCAKTYWSYGWSHGDYGEFDYWGQGTQVTVSS
polyreactivity (PSR sort gate): high polyreactivity

QVQVVESGGGLVQAGGCLRLSCAASGVIFVGYAMGWYRQAPGKERELVAAISWSGGSTYYADSVKGRFTISRDKAKNTVYLQMNSLKPEDTAVYYCAAYLYGYEYWGQGTQVTVSS
polyreactivity (PSR sort gate): high polyreactivity

QVQLVESGGGLVQAGGSLRLSCAASGFTFRYYVMGWYRQAPGKEGELVAAISWSGGTTYYADSVKGRFTISRDNAKNTVYLQMNSLKPEDTAVYYCAADVYLNRRQRMYFWGQGSQVTVSS
polyreactivity (PSR sort gate): high polyreactivity

QVQLVESGGGLVQAGGSLRLSCAASGGTFYYNAMGWYRQAPGKERELVAGITQSGGNTYYADSVKGRFTISRDNAKNTDYLQMNSLKPEDTAVYYCAARIRGTWKYGYWGQGTQVTVSS
polyreactivity (PSR sort gate): low polyreactivity

QVQLVESGGGLVQAGGSLRLSCAASGFTFFLYTMGWYRQAPGKERELVATITSAGTTNYADSVKGRFTISRDNAKNTVYLQMHSLKPEDTAVDYCNADRWEYDYWGQGTQVTVSS
polyreactivity (PSR sort gate): low polyreactivity

QVQLVESGGGLVQAGGSLRLSCAASGRTFRYYVMGWYIQAPAKERELVARISYSAGSTYYADSVKGRFTISRDNAKKTVYFQMNSLKPEDTAVDYCNAGGNFKDYGHYYWGQCTQVTVSS
polyreactivity (PSR sort gate): high polyreactivity

QVQLVESGGGIVQAGGSLRLLCAASGRNIINYDMGWYRQAPGKERELVAAITWSTGSTYADSVNGRFTISRDNAKNTVYLQMNSLSPEDTAVYYCAAPWGQTDDRHQGGDYWGQGTQVTVSS
polyreactivity (PSR sort gate): low polyreactivity

QVQLVESGGGLVQAGGSLRLSCAASGSIFLAYAMGWYRQAPGKEREFVAAISFSDGSTYYADSVKGRFTISRDNAKNTVYLQMNSLKPEETAVYYCNKGASPDDYDYWGQGTQVTVSS
polyreactivity (PSR sort gate): low polyreactivity

QVQLVESGGGLVQAGGSLRLSCAASGSIFRNYAMGWYRQAPGKERELVSAITRGGGSTYYADSVKARFTISRDNAKNTVYLQMNSLKPEETAVYYCAAVRVFQYKYDRFNYWGQGTQVTVSS
polyreactivity (PSR sort gate): high polyreactivity

QVQLQESGGGLVLAGGSLRLSCAESGYISWSFTMGWYRKAPGKEREFVAGITYGGITYYADSVKGRFTISRDNAKNTVYLQMNSLKPEDTAVYYCAAPQTYPYVYVYWGQGTQVTVSS
polyreactivity (PSR sort gate): high polyreactivity
